Experimental data from the nanobody polyreactivity screen of Harvey et al. (2022).

Test: yeast display, Sf9 membrane polyspecificity reagent, FACS + sequencing; frameworks hold sequencing errors
Procedure, shortened: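 Galactose induction of a Saccharomyces cerevisiae BJ5465 synthetic nanobody display library ran 36–48 hours. The cells were then stained for 1 hour at 4 °C with 10% biotinylated, detergent-solubilized Sf9 membrane reagent, pulled down on streptavidin microbeads and FACS-sorted into low and high (top ~1%) gates on expression and reagent-binding fluorescence. Labels for polyreactivity follow the gate of origin.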

| Sequence | polyreactivity (PSR sort gate) |
| --- | --- |
| QVQLVESGGGLVQAGGSLRLSCAASGSTFAANTMGWYRQAPGKEWELVAAITVRGGSTYYADSVKGRFTISRDNAKTTVYLQMNSLKPEDTAVYYCAAERPPYGYLVVGYVSTQYYYWGQGTQVTVSS | low polyreactivity |
| QVQLVESGGGLVQAGGSLRLSCAASGSTFAAYAAMGWYRQAPGKERELVAAISWNGGSTFYADSVKGRFTISRDNAKNTVYLQMNSLKPEDTAVYYCAVEYYWTLDFTFTFPLSYYWGQGSQVTVSS | low polyreactivity |
| QVQLVESGGGLVQAGGSLRLSCAASGSTFAAYVMGWYRQAPGKEWELVAAITSGGSTYYADSVKGRFTISRDNAKNTVYLQMNSLKPEDTAVYYCAASWIRYRWRYGYWGQGTQVTVSS | high polyreactivity |
| QVQLVESGGGLVQAGGSLRLSCAASGSTFADYAMGWYRQAPGKERELVAAITGDGGNTYYADSVKGRFTISRDTAKNTVYLQMTSLKPEDTAVYYCAAEHESGAYYYWGLGTQVTVSS | high polyreactivity |
| QVQLVESGGGLVQAGGSLRLSCAASGSTFADYVMGWYRQAPGKERELVAAISRSGGSTYYADSVKGRFTISRDNAKNTVYLQMNSLKPEDTAVYYCATDITPAISVEYDYWGQGTQVTVSS | high polyreactivity |
| QVQLVESGGGLVQAGGSLRLSCAASGSTFAGNAIGWYRQAPGKERELVAAITSGTGTHYADSVKGRFTISRDNAKNSVYLQMNSLKPEDTAVYYCAAEVWSWAGIWGYEYWGQGTQVTVSS | low polyreactivity |
| QVQLVESGGGLVQAGGSLRLSCAASGSTFAGNAMGWYRHAPGKERELVAAIDSSTGSTYYADSVKGRFTISLDNAKNTVYLQMNSLKPEDTAVYYCNKTSFLVKLDFWGQGTQVTVSS | low polyreactivity |
| QVQLVESGGGLVQAGGSLRLSCAASGSTFAGNAMGWYRQAHGKERELVAALDSSTGSTYYAYSVKGRFTISRDNAKNTVYLQMNSVKPEDTAVYYWNKTSFLVKLDYWGQGTQVTVSS | low polyreactivity |
| QVQLVESGGGLVQAGGSLRLSCAASGSTFAGNTMGWSRQAPGKERELVAAITWNGGRTRYADSVKGRFTISRDNAKNTVYLQMNSLKPEDTAVYYCNAGPWYENMDYWGQGTQVTVSS | high polyreactivity |
| QVQLVESGGGLVQAGGSLRLSCAASGSTFAGYAMGWYRQAPGKERELVAAISKSGGSTYYADSVKGRFTISRDNAKNTVYLQMNSLKPEDTAVYYCAARGGLPDGQGYYYWGQGTQVTVSS | high polyreactivity |
| QVQLVESGGGLVQAGGSLRLSCAASGSTFAGYAMGWYRQAPGKERELVAAISRRGGSTYYADSVKGRFTISRDYAKNTVYLQMNRLKPEDTAVYYCNRDKYLRDPDYDYWGQGSQVTVSS | low polyreactivity |
| QVQLVESGGGLVQAGGSLRLSCAASGSTFAIYAMGWYRPAPGKERELVAAITLRTDSTYYADSVKGRFTISRDNAKNTVYLQMNSLKPEDTAVYYCNTVAYMRRFDKWGMNYWGQGTQVTVSS | low polyreactivity |
| QVQLVESGGGLVQAGGSLRLSCAASGSTFAIYAMGWYRQAPGKERELVAAISKSGGSTYYADSVKGRFTISRDNAKNTVYLQMNSLKPEDTAVYYCARRQYAFGPYGFYYWGQGTQVTVSS | high polyreactivity |
| QVQLVESGGGLVQAGGSLRLSCAASGSTFAIYAMGWYRQAPGKERELVASISGGSTNYADSVKGRFTISRDNAKNTVYLQMNSLKPEDTAVYYCAARGALHHWYSYDYWGQGTQVTVSS | low polyreactivity |
| QVQLVESGGGLVQAGGSLRLSCAASGSTFAKNAMGVYRQAPGKERELVAAISRGGNTYYADSVKGRFTISRDNAKITVYLLMNSLKPEDTAVYYCAARYLFRSLNMDYWGQVTQVTVSS | high polyreactivity |
| QVQLVESGGGLVQAGGSLRLSCAASGSTFAKYAMGWSRQAPGKEREFVAAITASGGRTFYADSVKGRFTISRDNAKNTVYLQMNSLKPEDSAVYYCAADVVPTWYGYNYDYWGQGTQVTVSS | high polyreactivity |
| QVQLVESGGGLVQAGGSLRLSCAASGSTFALNAMGWYRQAPGKERELVAAISGRGGSTYYADSVKGRFTISRDNAKNTVYLQMNSLKPEDTAVYYCAATSRVYVRGSYWKYGYWGQGTQVTVSS | high polyreactivity |
| QVQLVESGGGLVQAGGSLRLSCAASGSTFAPNAMGWYRQAPGKEKEIVSGITWGDSTYYADSVKGRFTISRDNAKNTVYLQMNSLKPEDTAVYYCAVRWVWNPWGIQGDWAVDYDYWGQGTQVTVSS | low polyreactivity |
| QVQLVESGGGLVQAGGSLRLSCAASGSTFAPNAMGWYRQAPGKERELVAAISRGGSTYYADSVKGRFTISRDNAKNTVYLQMNSLKPEDTAVYYCAVYKFHYGYVWYPYDYWGQGTQVTVSS | high polyreactivity |
| QVQLVESGGGLVQAGGSLRLSCAASGSTFAPYAMGWYRQAPGKERELVAAITWRGGSTYYADSVKGRFTISRDNAKYTVYLQMNSLKPEDTAVYYCNADGYVPDYEYWGQGTQVTVSS | high polyreactivity |
| QVQLVESGGGLVQAGGSLRLSCAASGSTFAQDALGWYRQAPGKERELVATISASGGTTYYADSVKGRFSISRDNAKNPVYLQMNSLKPEDTAVYYCAKRRVWWPAHRSYLYASEFGYWGQGTQVTVSS | low polyreactivity |
| QVQLVESGGGLVQAGGSLRLSCAASGSTFAQNAMGWYRQAPGKEREFVAAITGTVGSTYYADSVKGRFTISRDNAKNTVYLQMNSLKPEDTAVHYCAVVHVFYAVSYFSFYTYDYWGQGTQVTVSS | low polyreactivity |

| Sequence | polyreactivity (PSR sort gate) |
| --- | --- |
| QVQLVESGGGLVQAGGSLRLSCAASGSTFAQNTKGWYRQAPGKERELVATISDGGGSTYYADSVKGRFTISRDNAKNTVYLQMNSLKPEDTAVYYCNTDRFWPSDYWGQGTQVTVSS | low polyreactivity |
| QVQLVESGGGLVQAGGSLRLSCAASGSTFAQNTMGWYRQAPGKERELVATISDGGGSTYYADSVKGRFTISRDNAKNTVYLQMNSLKPDDTAVYYCNTDRFWPSDYWGQGTQVTVSS | low polyreactivity |
| QVQLVESGGGLVQAGGSLRLSCAASGSTFAQYVMGWYRQAPWKERELFAAISRGGGRTYYADSVKGRFTISRDNAKNTVYLQMNSLKPEDTAVYYCAAETLGVYDYESYNYYWGQGTQVTVSS | high polyreactivity |
| QVQLVESGGGLVQAGGSLRLSCAASGSTFARNAMGRNRQAPGKERELVARITWSGSGTFYADPVKGRFTISRDNAKNTVYLQMYCLKPQDTAVYYCASEGPSAGFDYWGQGTQVTVSS | high polyreactivity |
| QVQLVESGGGLVQAGGSLRLSCAASGSTFARNTMGWYRHAPGKERELVAVITRGDSTYYADSVKGRFTISRDNAKNTVYLQMNSLKPEDTAGYYCNAYFRYAYPSKMDYWVQGTQVTVSS | low polyreactivity |
| QVQLVESGGGLVQAGGSLRLSCAASGSTFARYAMGWYRQAPGKERELVASITTGGRTYYADSVKGRFTITRDNAKYTVYLQMNSLKPEDTPVYFCNVLRYRGYDYWGQGTQVTVSS | high polyreactivity |
| QVQLVESGGGLVQAGGSLRLSCAASGSTFARYAMGWYRQAPGKERELVAVITQSGSSTYYADSVKGRFTISRDNAKNTVYLQMNSLKPEDTAVYYCAAVGIDYTRYGRYWYSYDYWGQGTQVTVSS | high polyreactivity |
| QVQLVESGGGLVQAGGSLRLSCAASGSTFASNAMGWYRQAPGKERELVAAIDWTGASTYYADSVKGRFTISRDNAKNTVYLQMNSLKPEDTAVYYCNADEYWNSRTQGYNYWGQGTQVTVSS | low polyreactivity |
| QVQLVESGGGLVQAGGSLRLSCAASGSTFASNMGWYRQAPGKERELVAGIRSSGSTYYADSVKGRFTISRDNAKNTVYLQMNSLKPEDTAVYSCNKGDYRTYPYDYWGQGTQVTVSS | low polyreactivity |
| QVQLVESGGGLVQAGGSLRLSCAASGSTFASNTMGWYRQAPGKERELVAAITQSGGTTYYADSVKGRFTISRDNAKNTVYLQMNSLKPEDTAVYYCAADATFIIRYLSRSDYWGQGTQVTVSS | low polyreactivity |
| QVQLVESGGGLVQAGGSLRLSCAASGSTFASNVMGWYRQAPGKERELVAAISRSGGNTYYADSVKGRFTISRDNAKNSVYLQMNSLKPEDTAVYYCAKYPFTRISYDYWGQGTQVTVSS | high polyreactivity |
| QVQLVESGGGLVQAGGSLRLSCAASGSTFASYAMGWYRQAPGKEREFVAAISRSGGSTYYADSVKGRFTISRDNAKNTVYLQMTSLKPEDTAVYYCAARSPSADEYYYWGQGTQVTVSS | low polyreactivity |
| QVQLVESGGGLVQAGGSLRLSCAASGSTFATYAMGWYRQAPGKERELVAVISRSGGSTYYADSVKGRFTISRDNAKNTVYLQMNSLKPEDTAVYYCNVPITPGRVKYDYWGQGTQVTVSS | high polyreactivity |
| QVQLVESGGGLVQAGGSLRLSCAASGSTFAVNAMGWYRQAPGKERELVAAISGSGGRTYYADSVKGRFTISRDNAKNTVYLQMNSLKPEDTAVYYCATELRASYRSSGAYHYDYWGQGTQVTVSS | low polyreactivity |
| QVQLVESGGGLVQAGGSLRLSCAASGSTFAVNAMGWYRQAPGKERELVAVITGNGANTYYADSVKGRFTISRDNAKNTVYLQMNSLKPEDTAVYYCNARLFSQSHYYYWGQGTQVTVSS | high polyreactivity |
| QVQLVESGGGLVQAGGSLRLSCAASGSTFAWYDMGWYRQAPGKEREFVAAIDYGGGSTYADSVKGRFTISRDNAKNTVYLQMNSLKPEDTAVYYCNADNWVYLYDYWGQGTQVTVSS | low polyreactivity |
| QVQLVESGGGLVQAGGSLRLSCAASGSTFAYNAKGWYRQAPGKERELTNYADSVKGRFTISRDNAKNTVYLQMNSLKPEDNAVYYCIAQIDFGVPDKRAWGYDYWGQGTQVTVSS | low polyreactivity |
| QVQLVESGGGLVQAGGSLRLSCAASGSTFAYNAMGWYRQAPGKERELVATMSYSGGTTDYADSVKGRFTISRDNAKNTVYLQMNSLKPEDTAVYYCNADHLTWGGWGIRKYDYWGQGTQVTVSS | high polyreactivity |
| QVQLVESGGGLVQAGGSLRLSCAASGSTFAYNAMGWYRQAPGNERELVAAISFTGDSTYYADSVKGRFTISRDNAKNTVYLQMNSLKPEDTRTSPVLSYDYWGQGTLVTVSS | low polyreactivity |
| QVQLVESGGGLVQAGGSLRLSCAASGSTFAYNDMGWYRLAPGKERELVADIRSGGNTNYADSVKGRFTISRDNAKNTVYLQMNSLKPEDTAVYYCATDGYRIDVYHPDYRYDYWGQGTQVTVSS | low polyreactivity |
| QVQLVESGGGLVQAGGSLRLSCAASGSTFAYYAMGWYRQAPGKERELVASISWRGGSTYYADSVKGRFTNSRDNAKNTVYLQMNSLKPEDTAVYYCAAGRFYIWSRSQEYDYWGQGTQVTVSS | low polyreactivity |
